T1: nSR100 (Mus musculus, UniProt Q8BKA3)
T1 construct: host or cells: mouse N2A cells
T1 sequence (Q8BKA3 1-608): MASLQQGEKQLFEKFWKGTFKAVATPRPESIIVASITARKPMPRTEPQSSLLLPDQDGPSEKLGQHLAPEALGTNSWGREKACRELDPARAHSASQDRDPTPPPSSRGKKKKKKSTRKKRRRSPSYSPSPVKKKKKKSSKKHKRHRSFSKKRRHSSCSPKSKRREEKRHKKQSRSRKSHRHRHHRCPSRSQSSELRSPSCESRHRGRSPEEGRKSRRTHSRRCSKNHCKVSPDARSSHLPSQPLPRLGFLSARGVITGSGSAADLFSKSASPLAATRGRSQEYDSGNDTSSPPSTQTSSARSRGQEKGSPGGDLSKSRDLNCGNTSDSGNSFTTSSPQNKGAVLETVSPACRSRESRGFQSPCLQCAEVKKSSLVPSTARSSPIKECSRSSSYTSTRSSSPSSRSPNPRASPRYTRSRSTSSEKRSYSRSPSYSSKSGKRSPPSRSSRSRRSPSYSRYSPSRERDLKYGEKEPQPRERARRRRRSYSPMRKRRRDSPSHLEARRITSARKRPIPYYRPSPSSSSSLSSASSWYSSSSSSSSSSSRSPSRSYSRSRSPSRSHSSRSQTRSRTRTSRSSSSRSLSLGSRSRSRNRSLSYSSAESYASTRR

B1: Api5 (protein, UniProt O35841 1-504, looked up)
Apoptosis inhibitor 5: MPTVEELYRNYGILADATEQVGQHKDAYQVILDGVKGGTKEKRLAAQFIPKFFKHFPELADSAINAQLDLCEDEDVSIRRQAIKELPQFATGENLPRVADILTQLLQTDDSAEFNLVNNALLSIFKMDAKGTLGGLFSQILQGEDIVRERAIKFLSTKLKTLPDEVLTKEVEELILTESKKVLEDVTGEEFVLFMKILSGLKSLQTVSGRQQLVELVAEQADLEQAFSPSDPDCVDRLLQCTRQAVPLFSKNVHSTRFVTYFCEQVLPNLSTLTTPVEGLDIQLEVLKLLAEMSSFCGDMEKLETNLRKLFDKLLEYMPLPPEEAENGENAGNEEPKLQFSYVECLLYSFHQLGRKLPDFLTAKLNAEKLKDFKIRLQYFARGLQVYIRQLRLALQGKTGEALKTEENKIKVVALKITNNINVLIKDLFHIPPSYKSTVTLSWKPVQKVEIGQKRTSEDTSSGSPPKKSPGGPKRDARQIYNPPSGKYSSNLSNFNYERSLQGK
B2: Gsk3b (protein, UniProt Q9WV60 1-420, looked up)
Glycogen synthase kinase-3 …: MSGRPRTTSFAESCKPVQQPSAFGSMKVSRDKDGSKVTTVVATPGQGPDRPQEVSYTDTKVIGNGSFGVVYQAKLCDSGELVAIKKVLQDKRFKNRELQIMRKLDHCNIVRLRYFFYSSGEKKDEVYLNLVLDYVPETVYRVARHYSRAKQTLPVIYVKLYMYQLFRSLAYIHSFGICHRDIKPQNLLLDPDTAVLKLCDFGSAKQLVRGEPNVSYICSRYYRAPELIFGATDYTSSIDVWSAGCVLAELLLGQPIFPGDSGVDQLVEIIKVLGTPTREQIREMNPNYTEFKFPQIKAHPWTKVFRPRTPPEAIALCSRLLEYTPTARLTPLEACAHSFFDELRDPNVKLPNGRDTPALFNFTTQELSSNPPLATILIPPHARIQAAASPPANATAASDTNAGDRGQTNNAASASASNST
B3: P00761 (protein, UniProt P00761 1-231, looked up)
chain: FPTDDDDKIVGGYTCAANSIPYQVSLNSGSHFCGGSLINSQWVVSAAHCYKSRIQVRLGEHNIDVLEGNEQFINAAKIITHPNFNGNTLDNDIMLIKLSSPATLNSRVATVSLPRSCAAAGTECLISGWGNTKSSGSSYPSLLQCLKAPVLSDSSCKSSYPGQITGNMICVGFLEGGKDSCQGDSGGPVVCNGQLQGIVSWGYGCAQKNKPGVYTKVCNYVNWIQQTIAAN
modifications: full-length
B4: Snrpa (protein, UniProt Q62189 1-287, looked up)
U1 small nuclear …: MATIATMPVPETRANHTIYINNLNEKIKKDELKKSLYAIFSQFGQILDILVSRIMKMRGQAFVIFKEVTSATNALRSMQGFPFYDKPMRIQYAKTDSDIIAKMKGTYVERDRKREKRKPKSQETPAAKKAVQGGAAAPVVGAVQPVPGMPPMPQAPRIMHHMPGQPPYMPPPGMIPPPGLAPGQIPPGAMPPQQLMPGQMPPAQPLSENPPNHILFLTNLPEETNELMLSMLFNQFPGFKEVRLVPGRHDIAFVEFDNEVQAGAARDALQGFKITQNNAMKISFAKK
B5: Acin1 (protein, UniProt Q9JIX8 1-1338, looked up)
Apoptotic chromatin …: MWGRKRPNSSGETRGILSGNRGVDYGSGRGQSGPFEGRWRKLPKMPEAVGTDPSTSRKMAELEEVTLDGKPLQALRVTDLKAALEQRGLAKSGQKSALVKRLKGALMLENLQKHSTPHAAFQPNSQIGEEMSQNSFIKQYLEKQQELLRQRLEREAREAAELEEASAESEDEMTHPEGVASLLPPDFQSSLNRPELELSTHSPRKSSSFSEEKGESDDEKPRKGERRSSRVRQAKSKLPEYSQTAEEEEDQETPSRNLRVRADRNLKIEEEEEEEEEEEDDDDEEEEEVDEAQKSREAEAPTLKQFEDEEGEERTRAKPEKVVDEKPLNIRSQEKGELEKGGRVTRSQEEARRSHLARQQQEKETQIVSLPQEENEVKSSQSLEEKSQSPSPPPLPEDLEKAPVVLQPEQIVSEEETPPPLLTKEASSPPTHIQLQEEMEPVEGPAPPVLIQLSPPNTDAGAREPLASPHPAQLLRSLSPLSGTTDTKAESPAGRVSDESVLPLAQKSSLPECSTQKGVESEREKSAPLPLTVEEFAPAKGITEEPMKKQSLEQKEGRRASHALFPEHSGKQSADSSSSRSSSPSSSSSPSRSPSPDSVASRPQSSPGSKQRDGAQARVHANPHERPKMGSRSTSESRSRSRSRSRSASSSSRKSLSPGVSRDSNTSYTETKDPSCGQEAAAPSGPQLQVLEPKEKAPTFSASVRGRHLSHPEPEQQHVIQRLQPEQGSPKKCEAEEAEPPAATQPQTSETQISHLLESERTHHTVEEKEEVTMDTSENRPENEVPEPPLPVADQVSNDERPEGGAEEEEKKESSMPKSFKRKISVVSATKGVQAGNSDTEGGQPGRKRRWGASTAATQKKPSISITTESLKSLIPDIKPLAGQEAVVDLHADDSRISEDETERNGDDGTHDKGLKICRTVTQVVPAEGQENGQREEEEEKEPEAELPAPPQVSVEVALPPPVEHEVKKVTLGDTLTRRSISQQKSGVSITIDDPVRTAQVPSPPRGKISNIVHISNLVRPFTLGQLKELLGRTGTLVEEAFWIDKIKSHCFVTYSTVEEAVATRTALHGVKWPQSNPKFLCADYAEQDELDYHRGLLVDRPSETKAEEQGAPRPLHPPPPPPVQPPPHPRAEQREQERAVREQWAEREREMERRERTRSEREWDRDKVREGPRSRSRSRDRRRKERAKSKEKKSEKKEKAQEEPPAKLLDDLFRKTKAAPCIYWLPLTESQIVQKEAEQAERAKEREKRRKEREEEEQKEREKEAERERNRQLEREKRREHSRERERDRERERDRGDRERERERDRDRGRERDRRDTKRHSRSRSRSTPVRDRGGRR
B6: U2af2 (protein, UniProt P26369 2-475, looked up)
Splicing factor U2AF 65 kDa …: SDFDEFERQLNENKQERDKENRHRKRSHSRSRSRDRKRRSRSRDRRNRDQRSASRDRRRRSKPLTRGAKEEHGGLIRSPRHEKKKKVRKYWDVPPPGFEHITPMQYKAMQAAGQIPATALLPTMTPDGLAVTPTPVPVVGSQMTRQARRLYVGNIPFGITEEAMMDFFNAQMRLGGLTQAPGNPVLAVQINQDKNFAFLEFRSVDETTQAMAFDGIIFQGQSLKIRRPHDYQPLPGMSENPSVYVPGVVSTVVPDSAHKLFIGGLPNYLNDDQVKELLTSFGPLKAFNLVKDSATGLSKGYAFCEYVDINVTDQAIAGLNGMQLGDKKLLVQRASVGAKNATLVSLPSTINQTPVTLQVPGLMSSQVQMGGHPTEVLCLMNMVLPEELLDDEEYEEIVEDVRDECSKYGLVKSIEIPRPVDGVEVPGCGKIFVEFTSVFDCQKAMQGLTGRKFANRVVVTKYCDPDSYHRRDFW
B7: Csnk1d (protein, UniProt Q9DC28 1-415, looked up)
Casein kinase I isoform delta: MELRVGNRYRLGRKIGSGSFGDIYLGTDIAAGEEVAIKLECVKTKHPQLHIESKIYKMMQGGVGIPTIRWCGAEGDYNVMVMELLGPSLEDLFNFCSRKFSLKTVLLLADQMISRIEYIHSKNFIHRDVKPDNFLMGLGKKGNLVYIIDFGLAKKYRDARTHQHIPYRENKNLTGTARYASINTHLGIEQSRRDDLESLGYVLMYFNLGSLPWQGLKAATKRQKYERISEKKMSTPIEVLCKGYPSEFATYLNFCRSLRFDDKPDYSYLRQLFRNLFHRQGFSYDYVFDWNMLKFGASRAADDAERERRDREERLRHSRNPATRGLPSTASGRLRGTQEVAPPTPLTPTSHTANTSPRPVSGMERERKVSMRLHRGAPVNVSSSDLTGRQDTSRMSTSQIPGRVASSGLQSVVHR
B8: Ywhaq (protein, UniProt P68254 1-245, looked up)
14-3-3 protein theta: MEKTELIQKAKLAEQAERYDDMATCMKAVTEQGAELSNEERNLLSVAYKNVVGGRRSAWRVISSIEQKTDTSDKKLQLIKDYREKVESELRSICTTVLELLDKYLIANATNPESKVFYLKMKGDYFRYLAEVACGDDRKQTIENSQGAYQEAFDISKKEMQPTHPIRLGLALNFSVFYYEILNNPELACTLAKTAFDEAIAELDTLNEDSYKDSTLIMQLLRDNLTLWTSDSAGEECDAAEGAEN

Target: T1, nSR100
Test: AP-MS nSR100 interaction partners from mouse N2A cells (Table 5)
Type: binding
Conditions: for AvgP (average of the SAINT scores) / MaxP (maximal SAINT score): bait Srrm4; for FoldChange between the prey Avg spectra of the bait and control purifications: bait Srrm4, 0.1 added to prevent division by 0; for AvgSpec (average number of spectra per replicate): bait Srrm4, 2 replicates; for Spectra (number of spectra for the prey in the purification of the bait): AP-MS; for SpecSum: bait Srrm4, sum of spectra over 2 replicates
[1] = bait Srrm4, biological replicate 1 (first number of the cell)
[2] = bait Srrm4, biological replicate 2 (second number of the cell)

Excerpt: By applying affinity purification coupled to mass-spectrometry (AP-MS), several interaction nSR100 partner proteins were detected that provide insight into mechanisms of post-translational regulation of nSR100 levels.

Molecule	AvgP (average of the SAINT scores)	MaxP (maximal SAINT score)	FoldChange between the prey Avg spectra of the bait and control purifications	AvgSpec (average number of spectra per replicate)	Spectra (number of spectra for the prey in the purification of the bait) [1]	Spectra (number of spectra for the prey in the purification of the bait) [2]	SpecSum
B1	1	1	18	9	8	10	18
B2	1	1	65	6.5	6	7	13
B3	1	1	150	15	15|15	15|15	30
B4	1	1	7.09	39	38	40	78
B5	1	1	250	25	23	27	50
B6	1	1	4.83	111	108	114	222
B7	1	1	55	5.5	7	4	11
B8	1	1	180	18	15	21	36

Source: patent US10772928B2, “Modulation and detection of a neuronal alternative splicing regulatory network for treatment and diagnosis of neurological disorders” (The Governing Council of the University of Toronto, priority 2014, dated 2020)
